Assay results reported in paper PMC5921835.

B1: sclareol synthase from Salvia sclarea (SsSS) (Salvia sclarea) (protein)
chain: AKMKENFKREDDKFPTTTTLRSEDIPSNLCIIDTLQRLGVDQFFQYEINTILDNTFRLWQEKHKVIYGNVTTHAMAFRLLRVKGYEVSSEELAPYGNQEAVSQQTNDLPMIIELYRAANERIYEEERSLEKILAWTTIFLNKQVQDNSIPDKKLHKLVEFYLRNYKGITIRLGARRNLELYDMTYYQALKSTNRFSNLCNEDFLVFAKQDFDIHEAQNQKGLQQLQRWYADCRLDTLNFGRDVVIIANYLASLIIGDHAFDYVRLAFAKTSVLVTIMDDFFDCHGSSQECDKIIELVKEWKENPDAEYGSEELEILFMALYNTVNELAERARVEQGRSVKEFLVKLWVEILSAFKIELDTWSNGTQQSFDEYISSSWLSNGSRLTGLLTMQFVGVKLSDEMLMSEECTDLARHVCMVGRLLNDVCSSEREREENIAGKSYSILLATEKDGRKVSEDEAIAEINEMVEYHWRKVLQIVYKKESILPRRCKDVFLEMAKGTFYAYGINDELTSPQQSKEDMKSFVF
B2: sclareol synthase from Salvia sclarea (SsSS) (Salvia sclarea; N431I) (protein)
chain: AKMKENFKREDDKFPTTTTLRSEDIPSNLCIIDTLQRLGVDQFFQYEINTILDNTFRLWQEKHKVIYGNVTTHAMAFRLLRVKGYEVSSEELAPYGNQEAVSQQTNDLPMIIELYRAANERIYEEERSLEKILAWTTIFLNKQVQDNSIPDKKLHKLVEFYLRNYKGITIRLGARRNLELYDMTYYQALKSTNRFSNLCNEDFLVFAKQDFDIHEAQNQKGLQQLQRWYADCRLDTLNFGRDVVIIANYLASLIIGDHAFDYVRLAFAKTSVLVTIMDDFFDCHGSSQECDKIIELVKEWKENPDAEYGSEELEILFMALYNTVNELAERARVEQGRSVKEFLVKLWVEILSAFKIELDTWSNGTQQSFDEYISSSWLSIGSRLTGLLTMQFVGVKLSDEMLMSEECTDLARHVCMVGRLLNDVCSSEREREENIAGKSYSILLATEKDGRKVSEDEAIAEINEMVEYHWRKVLQIVYKKESILPRRCKDVFLEMAKGTFYAYGINDELTSPQQSKEDMKSFVF
B3: sclareol synthase from Salvia sclarea (SsSS) (Salvia sclarea; N431Q) (protein)
chain: AKMKENFKREDDKFPTTTTLRSEDIPSNLCIIDTLQRLGVDQFFQYEINTILDNTFRLWQEKHKVIYGNVTTHAMAFRLLRVKGYEVSSEELAPYGNQEAVSQQTNDLPMIIELYRAANERIYEEERSLEKILAWTTIFLNKQVQDNSIPDKKLHKLVEFYLRNYKGITIRLGARRNLELYDMTYYQALKSTNRFSNLCNEDFLVFAKQDFDIHEAQNQKGLQQLQRWYADCRLDTLNFGRDVVIIANYLASLIIGDHAFDYVRLAFAKTSVLVTIMDDFFDCHGSSQECDKIIELVKEWKENPDAEYGSEELEILFMALYNTVNELAERARVEQGRSVKEFLVKLWVEILSAFKIELDTWSNGTQQSFDEYISSSWLSQGSRLTGLLTMQFVGVKLSDEMLMSEECTDLARHVCMVGRLLNDVCSSEREREENIAGKSYSILLATEKDGRKVSEDEAIAEINEMVEYHWRKVLQIVYKKESILPRRCKDVFLEMAKGTFYAYGINDELTSPQQSKEDMKSFVF

substrate: C/C(=C\COP(=O)(O)OP(=O)(O)O)CC[C@@H]1[C@@]2(C)CCCC(C)(C)[C@@H]2CC[C@@]1(C)O; assay: steady-state kinetics; assay type: biochemical, Salvia sclarea; conditions: mean ± SE of three experiments; assay conditions only in the supplement

B1 and B2 are within error of each other in Km: 7 ± 2 µM for the first, 6 ± 1 µM for the second.

B3 gave a Km of 10 ± 1 µM.

B1 and B2 are within 1.5-fold of each other in kcat: 0.53 ± 0.04 s⁻¹ for the first, 0.38 ± 0.02 s⁻¹ for the second.

In the case of B3, the kcat is reported as 0.47 ± 0.02 s⁻¹.

B1 and B2 are within 1.5-fold of each other in kcat/Km: 76000 M⁻¹ s⁻¹ for the first, 63000 M⁻¹ s⁻¹ for the second.

Work on B3 yielded a kcat/Km of 47000 M⁻¹ s⁻¹.
